# Experimental data: patent publication US20170115291A1, “Activating JAK Kinase Biomarkers Predictive of Anti-Immune Checkpoint Inhibitor Response” (Dana-Farber Cancer Institute, Inc., priority 2014, published 2017)
# B1: IFN-γ: cytokine known to trigger PD-L1 in the tumor immune microenvironment (protein, UniProt P01579 24-161, looked up)
# Interferon gamma: QDPYVKEAENLKKYFNAGHSDVADNGTLFLGILKNWKEESDRKIMQSQIVSFYFKLFKNFKDDQSIQKSVETIKEDMNVKFFNSNKKKRDDFEKLTNYSVTDLNVQRKAIHELIQVMAELSPAAKTGKRKRSQMLFRG
# Tested on: CD14+ myeloid cells
# Experiment: PBMC stimulation with IFNγ, PD-L1 on CD14+ myeloid cells by flow cytometry
# Type: cell-based, human
# Details: JAK3 V722I positive patients vs JAK3 P132T positive patient or blood donor controls, 250 ng/ml, 48 h
# Experimental: Peripheral blood mononuclear cells (PBMCs) from patients identified as having JAK3 V722I or P132T variants (see sequencing section above) and healthy donors were isolated from fresh blood and platelet-depleted blood collars, respectively, by Ficoll method. PBMCs were plated at a density of 7.5×10^5 cells/ml in a 48-well plate and stimulated with 250 ng/ml IFNγ (PBL Interferon Source). No stimulation controls were set-up for each donor. At 48 h post-stimulation, cells were treated with 2 mM EDTA and collected for flow cytometry to assess for PD-L1 expression on CD14+ myeloid cells. Cells were stained with Live/Dead yellow viability dye (Invitrogen), as well as antibodies (BD Biosciences) against CD14 (M5E2), CD11b (ICRF44), and PD-L1 (MIH1) for 30 min at 4 C, and then fixed in BD Cytofix® buffer prior to analyses on BD LSR Fortessa SORT® HTS flow cytometer. Given the need to compare the difference between two means in relation to the variation in the data, a t-test was used to compare PD-L1 inducibility between V722I and non-V722I monocytes.
molecule,measurement,value
B1,Expression of PD-L1 on CD14+ myeloid cells,modest but significantly increased
